Experiments:
human MerFc = biological target: T1, human MerFc (human, UniProt Q12866 21-499, limits assumed); experiment: ELISA, Fc fusion captured on anti-human IgG Fc
T1 sequence (looked up): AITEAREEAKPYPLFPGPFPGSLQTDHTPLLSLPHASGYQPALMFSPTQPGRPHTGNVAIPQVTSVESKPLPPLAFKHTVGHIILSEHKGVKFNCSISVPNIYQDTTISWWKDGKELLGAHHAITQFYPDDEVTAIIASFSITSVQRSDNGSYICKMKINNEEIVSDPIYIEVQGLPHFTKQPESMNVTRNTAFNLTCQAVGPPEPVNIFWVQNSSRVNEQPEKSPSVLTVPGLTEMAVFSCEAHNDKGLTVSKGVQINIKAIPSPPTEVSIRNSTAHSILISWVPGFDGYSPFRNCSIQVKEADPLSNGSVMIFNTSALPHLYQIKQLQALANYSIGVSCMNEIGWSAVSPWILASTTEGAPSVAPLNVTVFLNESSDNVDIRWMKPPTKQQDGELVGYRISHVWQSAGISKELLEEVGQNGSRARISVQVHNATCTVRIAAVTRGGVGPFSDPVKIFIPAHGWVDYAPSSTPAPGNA

human Tyro-3Fc = biological target: T2, human Tyro-3Fc (human, UniProt Q06418 41-428, limits assumed); experiment: ELISA, Fc fusion captured on anti-human IgG Fc
T2 sequence (looked up): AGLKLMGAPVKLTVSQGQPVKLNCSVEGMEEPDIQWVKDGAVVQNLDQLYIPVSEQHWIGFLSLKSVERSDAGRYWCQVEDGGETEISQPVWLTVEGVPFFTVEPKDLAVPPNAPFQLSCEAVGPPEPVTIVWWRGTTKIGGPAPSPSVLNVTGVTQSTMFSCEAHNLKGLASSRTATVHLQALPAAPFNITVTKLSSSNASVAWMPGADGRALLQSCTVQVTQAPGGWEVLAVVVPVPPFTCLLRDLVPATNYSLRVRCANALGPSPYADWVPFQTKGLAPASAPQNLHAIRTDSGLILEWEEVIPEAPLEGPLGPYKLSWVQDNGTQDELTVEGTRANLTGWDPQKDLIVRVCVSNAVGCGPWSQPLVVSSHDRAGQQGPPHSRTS

human AxI ECD-His = biological target: T3, human AxI ECD-His (human, UniProt P30530 26-451); experiment: SPR (BIAcore-3000), IgG captured by anti-human IgG, human AxI ECD-His injected
T3 construct: extracellular domain; also called human AxI ECD-His protein; Hu AxI

[1] = biological target: T4, murine AxI ECD-Fc fusion protein (murine, UniProt Q00993 19-445); experiment: SPR (BIAcore-3000), murine AxI ECD-Fc captured by anti-human IgG, anti-Axl Fab fragment injected (per methods)
T4 construct: extracellular domain; also called murine AxIFc; mouse AxI.Fc
T4 sequence (Q00993 19-445): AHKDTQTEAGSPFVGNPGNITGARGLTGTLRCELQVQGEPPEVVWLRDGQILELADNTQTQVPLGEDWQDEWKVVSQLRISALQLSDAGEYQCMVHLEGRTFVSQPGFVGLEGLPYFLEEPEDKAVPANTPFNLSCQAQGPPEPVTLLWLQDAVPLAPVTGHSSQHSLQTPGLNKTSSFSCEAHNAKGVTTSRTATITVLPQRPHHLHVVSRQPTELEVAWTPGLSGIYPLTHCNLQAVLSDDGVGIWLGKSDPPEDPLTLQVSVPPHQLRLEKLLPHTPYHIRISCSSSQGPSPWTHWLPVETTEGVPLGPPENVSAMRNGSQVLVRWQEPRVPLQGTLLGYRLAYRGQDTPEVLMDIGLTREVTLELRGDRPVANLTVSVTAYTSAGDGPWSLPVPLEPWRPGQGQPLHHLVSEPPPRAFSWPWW

B1: YW327.6S2 (antibody, V domains shown)
VH: EVQLVESGGGLVQPGGSLRLSCAASGFSLSGSWIHWVRQAPGKGLEWVGWINPYRGYAYYADSVKGRFTISADTSKNTAYLQMNSLRAEDTAVYYCAREYSGWGGSSVGYAMDYWGQGTLV
VL: DIQMTQSPSSLSASVGDRVTITCRASQDVSTAVAWYQQKPGKAPKLLIYSASFLYSGVPSRFSGSGSGTDFTLTISSLQPEDFATYYCQQSYTTPPTFGQGTKVEIKR
notes: also called AxI mAb YW327.6S2
Human MerFc
  binding result: no binding
Human Tyro-3Fc
  binding result: no binding
Human AxI ECD-His
  Kd: ~1 nM

B2: YW327.6S2 Fab fragment (Fab, V domains shown)
VH: EVQLVESGGGLVQPGGSLRLSCAASGFSLSGSWIHWVRQAPGKGLEWVGWINPYRGYAYYADSVKGRFTISADTSKNTAYLQMNSLRAEDTAVYYCAREYSGWGGSSVGYAMDYWGQGTLV
VL: DIQMTQSPSSLSASVGDRVTITCRASQDVSTAVAWYQQKPGKAPKLLIYSASFLYSGVPSRFSGSGSGTDFTLTISSLQPEDFATYYCQQSYTTPPTFGQGTKVEIKR
notes: also called anti-Axl Fab fragment
[1]
  Kd: 0.545 nM

From WO2011014457A1 (dated 2011)
